Data reported in paper doi:10.1101/2024.09.25.614941.
Where two headings read alike, the source gives them in different places.

Columns and labels:
[1] = target: T1, PfSir2A (UniProt Q8IE47); test: EMSA
T1 sequence: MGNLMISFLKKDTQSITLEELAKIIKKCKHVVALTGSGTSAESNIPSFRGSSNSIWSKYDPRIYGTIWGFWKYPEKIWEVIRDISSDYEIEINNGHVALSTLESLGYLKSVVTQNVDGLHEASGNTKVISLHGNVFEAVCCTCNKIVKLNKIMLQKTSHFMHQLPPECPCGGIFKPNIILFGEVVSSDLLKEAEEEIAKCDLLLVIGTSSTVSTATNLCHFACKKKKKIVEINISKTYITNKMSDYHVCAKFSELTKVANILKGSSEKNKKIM

[2] = target: recombinant human 601-positioned nucleosome with histone H3 acetylated at lysine 9 (H3K9Ac dNuc) (human) (UniProt P68431); test: native gel or EMSA

601 nucleosome assembly sequence DNA, 147 bp
Kd [1]: 4 µM

H3K9Ac dNuc (human 601-positioned nucleosome)
Kd ([1]; histone H3 K9 acetylated, no DNA modification stated): 1.4 µM

B1: Plasmodium falciparum silent information regulator 2A (PfSir2A) (enzyme)
chain: T1 sequence
Kd [2]: 1.4 µM
